# In publication PMC7954794, “Protein context shapes the specificity of SH3 domain-mediated interactions in vivo” (Nature Communications, 2021):
# B1: LSB1 (protein, UniProt P53281 2-241, looked up)
# LAS seventeen-binding protein …: SASLVNRSLKNIRNELEFLKESNVISGDIFELINSKLPEKWDGNQRSPQNADTEEYVEALYDFEAQQDGDLSLKTGDKIQVLEKISPDWYRGKSNNKIGIFPANYVKPAFTRSASPKSAEAASSSTVSRPSVPPPSYEPAASQYPSQQVSAPYAPPAGYMQAPPPQQQQAPLPYPPPFTNYYQQPQQQYAPPSQQAPVEAQPQQSSGASSAFKSFGSKLGNAAIFGAGSAIGSDIVNSIF
# Tested on: Abp1 PPIs
# Assay: DHFR-PCA of Abp1 SH3-swapped baits (Fig. 2B-D, S2C, S2F);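 as to Protein-protein interaction distance between Abp1 SH3-swapped baits, to ABP1: Euclidean distance between DHFR-PCA score profiles of the baits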;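 as to Protein-protein interaction distance between Abp1 SH3-swapped baits, to BEM1-2: Euclidean distance between DHFR-PCA score profiles of the baits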;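 as to Protein-protein interaction distance between Abp1 SH3-swapped baits, to BOI1: Euclidean distance between DHFR-PCA score profiles of the baits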;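 as to Protein-protein interaction distance between Abp1 SH3-swapped baits, to BZZ1-1: Euclidean distance between DHFR-PCA score profiles of the baits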
# Type: cell-based, Saccharomyces cerevisiae
# Summary of the method: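 Yeast DHFR-PCA in which Abp1 baits, carrying their SH3 replaced by CRISPR–Cas9 with one of 27 yeast SH3s or human CTTN, HCLS1 or DBNL SH3s, were mated against 575 SH3-associated DHFR F[3] preys plus 40 negative controls. Four tests were run per PPI. Diploids were selected twice (48 h, 30 °C), then grown 4 days on PCA selection media.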
# [1] = number of PPIs, difference, Abp1 SH3-swapped with the listed SH3, Fig2D,S2F
molecule,measurement,setting,value
B1,"Protein-protein interaction distance between Abp1 SH3-swapped baits, to ABP1","Abp1 bait with swapped SH3, distance to bait with ABP1 SH3, sheet Fig2C",13.24
same,"Protein-protein interaction distance between Abp1 SH3-swapped baits, to BBC1","distance to Abp1 bait with BBC1 SH3, sheet Fig2C",13.47
same,"Protein-protein interaction distance between Abp1 SH3-swapped baits, to BEM1-1","distance to Abp1 bait with BEM1-1 SH3, sheet Fig2C",19.25
same,"Protein-protein interaction distance between Abp1 SH3-swapped baits, to BEM1-2","distance to Abp1 bait with BEM1-2 SH3, sheet Fig2C",36.52
same,"Protein-protein interaction distance between Abp1 SH3-swapped baits, to BOI1","distance to Abp1 bait with BOI1 SH3, sheet Fig2C",16.11
same,"Protein-protein interaction distance between Abp1 SH3-swapped baits, to BOI2","distance to Abp1 bait with BOI2 SH3, sheet Fig2C",19.63
same,"Protein-protein interaction distance between Abp1 SH3-swapped baits, to BUD14","distance to Abp1 bait with BUD14 SH3, sheet Fig2C",22.3
same,"Protein-protein interaction distance between Abp1 SH3-swapped baits, to BZZ1-1","distance to Abp1 bait with BZZ1-1 SH3, sheet Fig2C",10.43
same,"Protein-protein interaction distance between Abp1 SH3-swapped baits, to BZZ1-2","distance to Abp1 bait with BZZ1-2 SH3, sheet Fig2C",15.96
same,"Protein-protein interaction distance between Abp1 SH3-swapped baits, to CDC25","distance to Abp1 bait with CDC25 SH3, sheet Fig2C",30.85
same,"Protein-protein interaction distance between Abp1 SH3-swapped baits, to CTTN","distance to Abp1 bait with CTTN SH3, sheet Fig2C",16.72
same,"Protein-protein interaction distance between Abp1 SH3-swapped baits, to CYK3","distance to Abp1 bait with CYK3 SH3, sheet Fig2C",31.53
same,"Protein-protein interaction distance between Abp1 SH3-swapped baits, to DBNL","distance to Abp1 bait with DBNL SH3, sheet Fig2C",10.77
same,"Protein-protein interaction distance between Abp1 SH3-swapped baits, to FUS1","distance to Abp1 bait with FUS1 SH3, sheet Fig2C",23.45
same,"Protein-protein interaction distance between Abp1 SH3-swapped baits, to HCLS1","distance to Abp1 bait with HCLS1 SH3, sheet Fig2C",10.61
same,"Protein-protein interaction distance between Abp1 SH3-swapped baits, to HOF1","distance to Abp1 bait with HOF1 SH3, sheet Fig2C",35.15
same,"Protein-protein interaction distance between Abp1 SH3-swapped baits, to HSE1","distance to Abp1 bait with HSE1 SH3, sheet Fig2C",12.02
same,"Protein-protein interaction distance between Abp1 SH3-swapped baits, to LSB1","distance to Abp1 bait with LSB1 SH3, sheet Fig2C",0.00
same,"Protein-protein interaction distance between Abp1 SH3-swapped baits, to LSB3","distance to Abp1 bait with LSB3 SH3, sheet Fig2C",3.731
same,"Protein-protein interaction distance between Abp1 SH3-swapped baits, to MYO3","distance to Abp1 bait with MYO3 SH3, sheet Fig2C",9.135
same,"Protein-protein interaction distance between Abp1 SH3-swapped baits, to MYO5","distance to Abp1 bait with MYO5 SH3, sheet Fig2C",7.822
same,"Protein-protein interaction distance between Abp1 SH3-swapped baits, to NBP2","distance to Abp1 bait with NBP2 SH3, sheet Fig2C",21.49
same,"Protein-protein interaction distance between Abp1 SH3-swapped baits, to PIN3","distance to Abp1 bait with PIN3 SH3, sheet Fig2C",5.513
same,"Protein-protein interaction distance between Abp1 SH3-swapped baits, to RVS167","distance to Abp1 bait with RVS167 SH3, sheet Fig2C",7.392
same,"Protein-protein interaction distance between Abp1 SH3-swapped baits, to SDC25","distance to Abp1 bait with SDC25 SH3, sheet Fig2C",37.12
same,"Protein-protein interaction distance between Abp1 SH3-swapped baits, to SHO1","distance to Abp1 bait with SHO1 SH3, sheet Fig2C",11.57
same,"Protein-protein interaction distance between Abp1 SH3-swapped baits, to SLA1-1","distance to Abp1 bait with SLA1-1 SH3, sheet Fig2C",33.34
same,"Protein-protein interaction distance between Abp1 SH3-swapped baits, to SLA1-2","distance to Abp1 bait with SLA1-2 SH3, sheet Fig2C",24.03
same,"Protein-protein interaction distance between Abp1 SH3-swapped baits, to SLA1-3","distance to Abp1 bait with SLA1-3 SH3, sheet Fig2C",5.759
same,"Protein-protein interaction distance between Abp1 SH3-swapped baits, to YSC84","distance to Abp1 bait with YSC84 SH3, sheet Fig2C",3.911
same,PPIs gained by Abp1 - SH3-dependent PPIs gained by Abp1,[1],41
same,SH3-dependent PPIs - SH3-dependent PPIs gained by Abp1,[1],8
same,SH3-dependent PPIs gained by Abp1,"number of PPIs, Abp1 SH3-swapped with the listed SH3, DHFR-PCA, Fig2D,S2F",0
